Measured values reported in the supplement of paper PMC11865577.

system: TO-3-N3-2 (biotin conjugate); test: pull-down binding Z-score (relative to library population); higher = stronger binding; details: RNA library: Library-2
Procedure, shortened: (§1)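 Biotin-conjugated small molecule (100 pmol) on streptavidin beads was incubated with 1 μg of heat-folded Cy5- or Cy3-end-labelled RNA library in phosphate/NaCl/KCl buffer at 25 °C for 60 min. Following three washes, RNA was eluted with hot SDS and hybridised at 55.5 °C for 20 h to a DNA barcode microarray. The binding value is a Z-score computed from the library mean and standard deviation, after subtraction of beads without compound and averaging of barcoded replicate probes with the highest and lowest excluded.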

Row | Sequence | pull-down binding Z-score
1 | GUCCUGACUGCGUGCCAGGGGC [hsa-mir-3650] | -0.518
2 | GUCCUGCCCUCACUGGGAACCCCCUUCCCUCUGGGUACCAG [hsa-mir-1324] | 0.477
3 | GUCUCGGUCCUUUGGAACGUGGC [hsa-mir-4470] | -0.387
4 | GUCUGCCAAAACCUUGGCAGAC [hsa-mir-3913-1] | -0.517
5 | GUCUGCCAAGGUUUUGGCAGAC [hsa-mir-3913-2] | -0.539
6 | GUCUGGCAUUGUCUGAUAUAC [hsa-mir-1294] | 0.316
7 | GUCUGUCACUGGGGAAGUC [hsa-mir-4682] | 0.276
8 | GUCUGUUUUCUUCAUGGUUUUCUGAC [hsa-mir-6759] | -0.481
9 | GUCUUGAUCCCCCACCCCAAGAC [hsa-mir-642b] | -0.299
10 | GUCUUGGGGUGGGGGAUCAAGAC [hsa-mir-642a] | 2.9
11 | GUGAACAUUGCAU [hsa-mir-4301] | -0.219
12 | GUGAACCUGAAUUUGCCUUGGGUUUCCU [hsa-mir-670] | -0.132
13 | GUGACGCCGCGAAGUGCAC [hsa-mir-3147] | 0.172
14 | GUGAGAGAUGCUUCUAGAUCCAGGAGGCAGACCUCAA [hsa-mir-4325] | 0.123
15 | GUGAGAUGUUCAUACAAUCCCUCAC [hsa-mir-216a] | -0.438
16 | GUGAGCGCAGGUCUUUGGCAC [hsa-mir-4450] | 0.39
17 | GUGAGCUCAGCUCCCUGCCUCAC [hsa-mir-3622b] | -0.173
18 | GUGAGCUGGAAAUGGGGUGCUAC [hsa-mir-598] | 0.651
19 | GUGAGGCAGGGAGCUGAGCUCAC [hsa-mir-3622a] | 0.142
20 | GUGAGGUAUUUUAGUAACAUCAC [hsa-mir-125b-2] | -0.536
21 | GUGAGUGUCUCUUGUCGC [hsa-mir-1281] | -0.252
22 | GUGAGUUAGAAAAGCUCAAUUCAC [hsa-mir-4457] | -0.365
23 | GUGAUAGGAUUUAUCAC [hsa-mir-4999] | -0.295
24 | GUGAUAGUAAUAAAGUCUCAU [hsa-mir-135a-2] | -0.218
25 | GUGAUGUGAGGAGCAACAGGCACCCUCCU [hsa-mir-6792] | 0.254

Row | Sequence | pull-down binding Z-score
26 | GUGAUUACAUUAAAACUUAAAAUUUCAC [hsa-mir-4719] | -0.244
27 | GUGAUUGUCUUCCUCACUCAAUCAG [hsa-mir-4704] | -0.174
28 | GUGCACUUCAUUUACGAUGUAG [hsa-mir-1193] | 0.167
29 | GUGCAGCUUGUACCUGCAC [hsa-mir-1293] | -0.574
30 | GUGCUGGCAGUGGCCACGUAA [hsa-mir-4276] | 0.0605
31 | GUGGAACUGACCUGCCCCCUUUCUC [hsa-mir-6817] | 0.124
32 | GUGGAAUGCAAAGUCCCAC [hsa-mir-5698] | -0.36
33 | GUGGACAGAGGCAAAACUCUAACUUC [hsa-mir-6078] | -0.41
34 | GUGGAGCCAAAAUUAGAAGGGCCAAAAUUCUACCUGGCCCACUACCACAG [hsa-mir-3978] | 0.318
35 | GUGGAGGGUGGUGCCGCCGGGGCCGGGCGCUGUUUCAGCUCGCUUCUCCCCCCAC [hsa-mir-1224] | 1.31
36 | GUGGAGGUAGGCGAGAGUAAUAUAAUUUCUCCAGGAGAACAUCUGAGAGGGGAAGUUGCUUUCCUGCCCUGGCCCUUUCAC [hsa-mir-6076] | 0.000368
37 | GUGGAGUCGGGUCAGACUUCAA [hsa-mir-378c] | -0.477
38 | GUGGCCUUGGACAAGCCUCUUGGUUAC [hsa-mir-4672] | -0.502
39 | GUGGCUAAUCAGCUGAUGGUGCCAC [hsa-mir-4715] | -0.511
40 | GUGGCUUCAACCAAGUUCAAAGUCAC [hsa-mir-3186] | -0.378
41 | GUGGCUUGUGGCUGAGUGUCACGCUGC [hsa-mir-6068] | -0.233
42 | GUGGGUCAAGUUUAGAGAUGCACCAAC [hsa-mir-490] | 0.519
43 | GUGGGUUGUGAGGACUGAGGCCAGACCCAC [hsa-mir-181d] | -0.244
44 | GUGGUGGGCACUGCUGGGGUGGGCACAGCAGCCAUGCAGAGCGGGCAUUUGACCCCGUGCCACCCUUUUCCCCAG [hsa-mir-1227] | 1.89
45 | GUGGUUUCAGGGCAGUGAUGUUGCCCCUCGGAAGAUAACUAU [hsa-let-7b] | -0.113
46 | GUGUACAGGGAGGAGACUGUACGUGAGAGAUAGUCAGAUCCGCAUGUUAGAGCAGAGUCUCCUUCGUGUACAG [hsa-mir-4441] | -0.183
47 | GUGUACCUCAUGUGUGUACAC [hsa-mir-5692a-2_5692a-1] | -0.344
48 | GUGUAGAGGCGGAGCACAG [hsa-mir-1471] | 0.381
49 | GUGUAGGGGUGGCUACAC [hsa-mir-4717] | 0.281
50 | GUGUAUGGGCUGAGCCUUGC [hsa-mir-6805] | 0.0312

Row | Sequence | pull-down binding Z-score
51 | GUGUCCUGAAAUUCACAGGACUG [hsa-mir-4700] | 0.237
52 | GUGUCCUUUCUUCUGAGAGCUGGACAC [hsa-mir-6500] | -0.39
53 | GUGUCGCCCCACGAGGGGGACUGU [hsa-mir-4322] | -0.362
54 | GUGUCUGGAGACGCCAGGCAGC [hsa-mir-4323] | -0.352
55 | GUGUCUGGCCCCAGCAGCCCAGACU [hsa-mir-6751] | -0.171
56 | GUGUGGAGAGAGCACUGAGCCUGCCCACC [hsa-mir-6849] | -0.152
57 | GUGUGUGGCGUGGGUGCUGCGGGGCCGUCAGGGUGCCUGCGGGACGCUCAC [hsa-mir-6765] | 0.334
58 | GUGUGUUACCUAGAAAUAGCACU [hsa-mir-378a] | -0.165
59 | GUGUUCACACAUAAUGUGUACACCAUGUGUGUACAC [hsa-mir-5692b] | -0.272
60 | GUGUUGGGUAUAAGUAACA [hsa-mir-1270] | 0.157
61 | GUGUUUAUUUUUUACUAAAUAG [hsa-mir-4766] | 0.102
62 | GUGUUUGUGACAUAAUUUGU [hsa-mir-325] | 0.252
63 | GUGUUUUCUCCUUUAGAGAGAGCUG [hsa-mir-4299] | -0.23
64 | GUUACUAAUCUAACUAAUUGUAAC [hsa-mir-582] | 0.0952
65 | GUUACUGUGGGAACUGGAGGUAAC [hsa-mir-132] | 0.489
66 | GUUAGACCUGGCCCUCUGUCUAAU [hsa-mir-429] | -0.136
67 | GUUAGUUGUGGACACAUACUAAC [hsa-mir-3912] | -0.735
68 | GUUCAGAGUCUGUUUUUGUCUAGC [hsa-mir-29c] | 0.0089
69 | GUUCCUGUGAUUUUUC [hsa-mir-198] | -0.212
70 | GUUCGCUUAAUUUAUGACGAAUC [hsa-mir-487a] | -0.215
71 | GUUCGGGGGUUCCGACGGCGAC [hsa-mir-6790] | 0.957
72 | GUUGAAAAAUAUCUAUGUAUUAGUAAAC [hsa-mir-649] | -0.281
73 | GUUGACUGUUGAAUCUCAUGGCAAC [hsa-mir-21] | -0.186
74 | GUUGCAUGUUGUCACGGCCUCAAUGCAAU [hsa-mir-32] | -0.202

system: TO-3-N3 (biotin conjugate); test: as above; details: RNA library: Library-2
Procedure, shortened: as §1

Row | Sequence | pull-down binding Z-score
75 | GUCCUGACUGCGUGCCAGGGGC [hsa-mir-3650] | -0.235
76 | GUCCUGCCCUCACUGGGAACCCCCUUCCCUCUGGGUACCAG [hsa-mir-1324] | 1.48
77 | GUCUCGGUCCUUUGGAACGUGGC [hsa-mir-4470] | -0.39
78 | GUCUGCCAAAACCUUGGCAGAC [hsa-mir-3913-1] | -0.531
79 | GUCUGCCAAGGUUUUGGCAGAC [hsa-mir-3913-2] | -0.58
80 | GUCUGGCAUUGUCUGAUAUAC [hsa-mir-1294] | 1.12
81 | GUCUGUCACUGGGGAAGUC [hsa-mir-4682] | 0.735
82 | GUCUGUUUUCUUCAUGGUUUUCUGAC [hsa-mir-6759] | -0.779
83 | GUCUUGAUCCCCCACCCCAAGAC [hsa-mir-642b] | -0.257
84 | GUCUUGGGGUGGGGGAUCAAGAC [hsa-mir-642a] | 2.99
85 | GUGAACAUUGCAU [hsa-mir-4301] | -0.353
86 | GUGAACCUGAAUUUGCCUUGGGUUUCCU [hsa-mir-670] | -0.509
87 | GUGACGCCGCGAAGUGCAC [hsa-mir-3147] | 0.25
88 | GUGAGAGAUGCUUCUAGAUCCAGGAGGCAGACCUCAA [hsa-mir-4325] | 0.524
89 | GUGAGAUGUUCAUACAAUCCCUCAC [hsa-mir-216a] | -0.788
90 | GUGAGCGCAGGUCUUUGGCAC [hsa-mir-4450] | 0.104
91 | GUGAGCUCAGCUCCCUGCCUCAC [hsa-mir-3622b] | -0.00258
92 | GUGAGCUGGAAAUGGGGUGCUAC [hsa-mir-598] | 1.46
